The test system of series [1] is gld-1 FBEa RNA. The series can be described thus: Surface plasmon resonance, RNA-binding kinetics. Set-up: species or system C. elegans. On the procedure:
Kinetics of FBF-2 binding to the gld-1 FBEa RNA were measured using a 2-channel OpenSPR instrument (Nicoya). A 3′-biotin-labeled synthetic RNA was ordered from Horizon Discovery (gld-1 FBEa, 5′-AUCAUGUGCCAUACA-biotin-3′). The 3′-biotinylated RNA was immobilized on streptavidin-treated biotin sensor chips (Nicoya). All experiments were performed at 20 °C with a buffer of 20 mM HEPES, pH 7.4, 150 mM NaCl, and 2 mM DTT. SPR data were collected using OpenSPR (Nicoya, version 4.3). FBF-2 proteins were injected with a flow rate of 20 µl/min. Data were obtained at five different protein concentrations (25, 50, 100, 200, and 400 nM for wild type RBD + CT; 12.5, 25, 50, 100, and 200 nM for RBD + CT mutants and wild type RBD). Sensor chips were regenerated using 0.05% or 0.1% (v/v) SDS. For each experiment, five binding curves were simultaneously fit using a 1:1 binding model with the TraceDrawer software (Ridgeview Instruments, version 1.9.1). Mean values and standard deviation were calculated from two technical replicates. Despite our efforts, the fit of the binding curves for the association phase of FBF-2 RBD and FBF-2 RBD + CT mutants is poorer than the fit for FBF-2 RBD + CT WT. The appearance of the curves is consistent with the derived kon and koff values, and importantly, the curve fit for the dissociation phase is better.

A short description of series [2]: Melting temperature of FBF-2 proteins. Format: physicochemical. The note with it: for thermal stability: in words, vs RBD alone or vs RBD + CT. On the procedure:
Mutants of FBF-2 RBD + CT: Y479A (5′-[…]), L610A (5′-[…]), and Loop6A (E592A, D594A, E597A, E599A, E604A, E605A; 5′-[…]) were generated by site-directed mutagenesis with the primers indicated. Plasmid sequences were verified by DNA sequencing (Azenta Life Sciences). Protein variants were expressed and purified like wild type proteins. Melting temperatures of wild type and mutant proteins were assessed by differential scanning […]. Reaction mixtures (total volume of 20 μl) contained ~0.3 mg/ml FBF-2 proteins and Sypro Orange dye (1:1000 dilution) (Sigma). Fluorescent intensity was collected from 25 °C to 95 °C (3 °C increment/min) with a real time PCR instrument (Applied Biosystems™ QuantStudio 7 Flex System) using excitation and emission wavelengths of 470 nm and 586 nm, respectively. Protein Thermal Shift^TM software (Applied Biosystems, version 1.4) was used to analyze protein melting curves and calculate melting temperatures (Tm).

Series [3] relates to gld-1 FBEa RNA. Briefly: Electrophoretic mobility shift assay (EMSA), RNA binding. Also noted: species or system C. elegans. How it is done: A 3′-Cy5-labeled synthetic RNA was ordered from IDT (gld-1 FBEa, 5′-[…]-3′). The FBF-2 proteins were serially diluted 2-fold from the highest concentration of 10 µM in the buffer used for gel filtration (20 mM HEPES pH 7.4, 150 mM NaCl, and 0.5 mM TCEP). 10 µl of the serially diluted protein samples were mixed with 10 µl RNA (10 nM) in a 2× buffer of 10 mM HEPES pH 7.4, 0.01% (v/v) Tween 20, 0.1 mg/ml BSA, 0.1 mg/ml yeast tRNA, and 2 mM DTT. For experiments in the presence of LST-1, LST-1 proteins at constant concentration were preincubated with FBF-2 at 4 °C for 2 h. The LST-1 concentrations were chosen based on their Kd’s for interaction with FBF-2. The final FBF-2 concentrations ranged from 5000 nM to 0.6 nM, and the LST-1 A or B concentrations were constant at 150 μM or 50 μM, respectively. The protein-RNA mixtures were incubated at 4 °C overnight. The samples were resolved on 10% TBE polyacrylamide gels run at constant voltage (100 V) with 1× TBE buffer at room temperature for 35 min. The gels were scanned and visualized with a Typhoon FLA 9500 imager using the Cy5 channel (excitation wavelength 635 nm). Band intensities were quantified with ImageQuant 5.2 (Cytiva). The data were fit with GraphPad Prism (version 9.2.0) using nonlinear regression with a one-site specific binding model. Mean Kd’s and standard error of the mean (SEM) from three or more technical replicates are reported (Supplementary Table 4). Full scan images for the replicates shown in the main figures and gel images for all replicates are included in a source data file.
For orientation: Mobility shift assays separate free from complexed probe on a gel.

The mark [4] stands for this setting: derived from on/off rates, mean ± SD, two technical replicates.
Setting [5] is: mean ± SD, two technical replicates, 20 °C, pH 7.4, 1:1 model.
The mark [6] stands for this setting: mean ± SD, three technical replicates, ~0.3 mg/ml protein, Sypro Orange, 25 to 95 °C, fluorescence.
Where [7] appears, read: no LST-1, mean ± SEM of independent technical replicates (n = 3-5), 4 °C overnight, pH 7.4, Cy5-RNA 5′-AUCAUGUGCCAUAC-3′.

Changes are numbered by the printed parent chain. In names and notes the source's numbering stands. Several values for one entry are separate records, joined by “and”; a condition that tells them apart may be missing. Equal entries are not always repeated. Where two headings read alike, the source gives them in different places.

B1: FBF-2 RBD + CT: C. elegans FBF-2 RBD plus C-terminal tail, residues 164-632 (protein)
chain: SNNVLPTWSLDSNGEMRSRLSLSEVLDSGDLMKFAVDKTGCQFLEKAVKGSLTSYQKFQLFEQVIGRKDDFLKLSTNIFGNYLVQSVIGISLATNDDGYTKRQEKLKNFISSQMTDMCLDKFACRVIQSSLQNMDLSLACKLVQALPRDARLIAICVDQNANHVIQKVVAVIPLKNWEFIVDFVATPEHLRQICSDKYGCRVVQTIIEKLTADSMNVDLTSAAQNLRERALQRLMTSVTNRCQELATNEYANYIIQHIVSNDDLAVYRECIIEKCLMRNLLSLSQEKFASHVVEKAFLHAPLELLAEMMDEIFDGYIPHPDTGKDALDIMMFHQFGNYVVQCMLTICCDAVSGRRQTKEGGYDHAISFQDWLKKLHSRVTKERHRLSRFSSGKKMIETLANLRSTHPIYELQSSGHDSFKTDYFSTASEHDGPELEKNGIEEGSLMLEPRSNKSSVSVKFSSSGSHGDD
modifications: left off: His6-SUMO, N-terminal, cleaved
Broadly, the Kd is the concentration at which binding is half-saturated. In general, koff refers to the rate constant with which the complex falls apart. By kon is commonly meant the second-order rate constant of association. As to B1, the “fold faster off rate” value in the series with gld-1 FBEa RNA [1] (RBD + CT vs RBD) was ~ 5 fold. Moreover, the Kd at gld-1 FBEa RNA [1] (setting [4]) stood at 65.1 ± 21.1 nM; on gld-1 FBEa RNA [1] (replicate 1) it was 80 nM; on gld-1 FBEa RNA [1] (replicate 2) it was 50 nM; on gld-1 FBEa RNA [3] (setting [7]), 334 nM; on gld-1 FBEa RNA [3] (no LST-1, replicate 1), 294 nM; on gld-1 FBEa RNA [3] (no LST-1, replicate 2), 394 nM. Also, the Kd at gld-1 FBEa RNA [3] (no LST-1, replicate 3) is 379 nM; at gld-1 FBEa RNA [3] (no LST-1, replicate 4) it was 270 nM; at gld-1 FBEa RNA [3] (pH 7.4), 114 nM and 68 nM; at gld-1 FBEa RNA [3] (with 150 μM LST-1 A, replicate 1) it was 111 nM; at gld-1 FBEa RNA [3] (with 150 μM LST-1 A, replicate 2), 106 nM. The koff in the series on gld-1 FBEa RNA [1] (setting [5]) turned out to be 0.00442 s⁻¹; with gld-1 FBEa RNA [1] (replicate 1, read-out: koff), 0.00469 s⁻¹; in the series on gld-1 FBEa RNA [1] (replicate 2, read-out: koff) it was 0.00414 s⁻¹. Besides, the kon was determined as 71000 M⁻¹ s⁻¹ in the series with gld-1 FBEa RNA [1] (setting [5]), 58700 M⁻¹ s⁻¹ in the series on gld-1 FBEa RNA [1] (replicate 1) and 82500 M⁻¹ s⁻¹ with gld-1 FBEa RNA [1] (replicate 2). In addition, the thermal stability entry in series [2] is “increased thermal stability compared to the RBD alone”. Besides, the Tm in series [2] (setting [6]) was determined as 40.24 ± 0.12 °C; in series [2] (replicate 1), 40.06 °C; in series [2] (replicate 2), 40.48 °C; in series [2] (replicate 3), 40.20 °C. In addition, the “fold weaker RNA-binding affinity” value in the series with gld-1 FBEa RNA [3] (RBD + CT vs RBD alone) was about 5 fold.

B2: FBF-2 RBD + CT L610A: FBF-2 RBD + CT mutated in the C-terminal tail (L610A) (protein)
chain: B1 chain with L447A
modifications: left off: His6-SUMO, N-terminal, cleaved
In the case of B2, the Kd at gld-1 FBEa RNA [1] (setting [4]) was 9.4 ± 3.6 nM; on gld-1 FBEa RNA [1] (replicate 1), 11.9 nM; on gld-1 FBEa RNA [1] (replicate 2), 6.8 nM; at gld-1 FBEa RNA [3] it was 61 nM and 93 nM and 91 nM; on gld-1 FBEa RNA [3] (setting [7]) it was 51 nM; on gld-1 FBEa RNA [3] (no LST-1, replicate 1) it was 38 nM. Further, the Kd amounted to 32 nM at gld-1 FBEa RNA [3] (no LST-1, replicate 2); 66 nM at gld-1 FBEa RNA [3] (no LST-1, replicate 3); 30 nM at gld-1 FBEa RNA [3] (no LST-1, replicate 4); 89 nM at gld-1 FBEa RNA [3] (no LST-1, replicate 5); 82 ± 18 nM at gld-1 FBEa RNA [3] (pH 7.4). Further, the koff was 1.36 ± 0.11 x10^-3 s^-1 in the series on gld-1 FBEa RNA [1] (setting [5]); 0.00144 s⁻¹ in the series with gld-1 FBEa RNA [1] (replicate 1, read-out: koff); 0.00128 s⁻¹ with gld-1 FBEa RNA [1] (replicate 2, read-out: koff). Also, the figures for the kon with gld-1 FBEa RNA [1] (setting [5]), in the series with gld-1 FBEa RNA [1] (replicate 1) and in the series with gld-1 FBEa RNA [1] (replicate 2) were 15.5 ± 4.7 x10^4 M^-1 s^-1, 121000 M⁻¹ s⁻¹ and 188000 M⁻¹ s⁻¹, respectively. Moreover, the thermal stability entry in series [2] was “melting temperature of the mutated protein near that of the RBD alone”. Besides, the Tm came to 35.63 ± 0.05 °C in series [2] (setting [6]), 35.72 °C in series [2] (replicate 1), 35.58 °C in series [2] (replicate 2) and 35.58 °C in series [2] (replicate 3).

B3: FBF-2 RBD: FBF-2 RNA-binding domain, residues 164-575, lacking the C-terminal tail (protein)
chain: SNNVLPTWSLDSNGEMRSRLSLSEVLDSGDLMKFAVDKTGCQFLEKAVKGSLTSYQKFQLFEQVIGRKDDFLKLSTNIFGNYLVQSVIGISLATNDDGYTKRQEKLKNFISSQMTDMCLDKFACRVIQSSLQNMDLSLACKLVQALPRDARLIAICVDQNANHVIQKVVAVIPLKNWEFIVDFVATPEHLRQICSDKYGCRVVQTIIEKLTADSMNVDLTSAAQNLRERALQRLMTSVTNRCQELATNEYANYIIQHIVSNDDLAVYRECIIEKCLMRNLLSLSQEKFASHVVEKAFLHAPLELLAEMMDEIFDGYIPHPDTGKDALDIMMFHQFGNYVVQCMLTICCDAVSGRRQTKEGGYDHAISFQDWLKKLHSRVTKERHRLSRFSSGKKMIETLANLRSTHPIYELQ
modifications: left off: His6-SUMO, N-terminal, cleaved
In the case of B3, the Kd on gld-1 FBEa RNA [1] (setting [4]) is 6.6 ± 2.3 nM; on gld-1 FBEa RNA [1] (replicate 1), 8.2 nM; on gld-1 FBEa RNA [1] (replicate 2), 5 nM; at gld-1 FBEa RNA [3] (in the presence of 50 μM LST-1 B, mean ± SEM, n = 3, 4 °C overnight, pH 7.4), 176 nM; on gld-1 FBEa RNA [3] (setting [7]) it was 70 nM; on gld-1 FBEa RNA [3] (no LST-1, replicate 1) it was 75 nM. The Kd was determined as 62 nM at gld-1 FBEa RNA [3] (no LST-1, replicate 2); 98 nM on gld-1 FBEa RNA [3] (no LST-1, replicate 3); 44 nM on gld-1 FBEa RNA [3] (no LST-1, replicate 4); 148 nM on gld-1 FBEa RNA [3] (with 50 μM LST-1 B, replicate 1); 180 nM at gld-1 FBEa RNA [3] (with 50 μM LST-1 B, replicate 2); 201 nM at gld-1 FBEa RNA [3] (with 50 μM LST-1 B, replicate 3). Also, the koff was 0.00086 s⁻¹ in the series with gld-1 FBEa RNA [1] (setting [5]); 0.000979 s⁻¹ in the series with gld-1 FBEa RNA [1] (replicate 1, read-out: koff); 0.00075 s⁻¹ with gld-1 FBEa RNA [1] (replicate 2, read-out: koff). In addition, the kon in the series on gld-1 FBEa RNA [1] (setting [5]) worked out at 136000 M⁻¹ s⁻¹; in the series with gld-1 FBEa RNA [1] (replicate 1), 120000 M⁻¹ s⁻¹; with gld-1 FBEa RNA [1] (replicate 2) it was 151000 M⁻¹ s⁻¹. The Tm stood at 36.32 ± 0.05 °C in series [2] (setting [6]), 36.42 °C in series [2] (replicate 1), 36.28 °C in series [2] (replicate 2) and 36.28 °C in series [2] (replicate 3).

Source of the values: article PMC10641069, “Intra- and inter-molecular regulation by intrinsically-disordered regions governs PUF protein RNA binding” (Nature Communications, 2023).
